Results as given in article PMC11267003, “Interdomain communication in a homodimeric ABC transporter” (The Journal of Biological Chemistry, 2024).
No end group written: not given here. *: point of attachment. Fluorescein(5-NHCOCH2) = O=C(C*)Nc1ccc2c(c1)C(=O)OC21c2ccc(O)cc2Oc2cc(O)ccc21

T1: human coreTAPL D292A, C-terminal mVenus-His10 fusion (human) (UniProt Q9NP78)
T1 sequence: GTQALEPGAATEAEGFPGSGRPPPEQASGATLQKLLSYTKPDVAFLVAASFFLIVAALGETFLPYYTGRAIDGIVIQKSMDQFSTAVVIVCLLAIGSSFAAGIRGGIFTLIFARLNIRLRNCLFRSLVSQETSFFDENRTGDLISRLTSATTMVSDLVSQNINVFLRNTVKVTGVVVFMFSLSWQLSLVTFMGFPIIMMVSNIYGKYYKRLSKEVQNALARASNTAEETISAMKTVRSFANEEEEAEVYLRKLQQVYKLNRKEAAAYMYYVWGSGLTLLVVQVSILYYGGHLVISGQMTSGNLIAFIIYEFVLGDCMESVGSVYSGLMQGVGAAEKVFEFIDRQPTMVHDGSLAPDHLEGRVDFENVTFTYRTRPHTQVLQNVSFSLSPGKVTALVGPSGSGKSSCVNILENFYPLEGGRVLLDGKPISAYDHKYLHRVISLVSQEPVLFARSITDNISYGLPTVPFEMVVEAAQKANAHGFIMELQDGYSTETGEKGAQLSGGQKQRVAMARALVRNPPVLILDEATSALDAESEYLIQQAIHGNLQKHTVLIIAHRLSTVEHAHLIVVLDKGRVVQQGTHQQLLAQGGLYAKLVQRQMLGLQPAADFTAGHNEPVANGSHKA

T2: human coreTAPL R288A, C-terminal mVenus-His10 fusion (human) (UniProt Q9NP78)
T2 sequence: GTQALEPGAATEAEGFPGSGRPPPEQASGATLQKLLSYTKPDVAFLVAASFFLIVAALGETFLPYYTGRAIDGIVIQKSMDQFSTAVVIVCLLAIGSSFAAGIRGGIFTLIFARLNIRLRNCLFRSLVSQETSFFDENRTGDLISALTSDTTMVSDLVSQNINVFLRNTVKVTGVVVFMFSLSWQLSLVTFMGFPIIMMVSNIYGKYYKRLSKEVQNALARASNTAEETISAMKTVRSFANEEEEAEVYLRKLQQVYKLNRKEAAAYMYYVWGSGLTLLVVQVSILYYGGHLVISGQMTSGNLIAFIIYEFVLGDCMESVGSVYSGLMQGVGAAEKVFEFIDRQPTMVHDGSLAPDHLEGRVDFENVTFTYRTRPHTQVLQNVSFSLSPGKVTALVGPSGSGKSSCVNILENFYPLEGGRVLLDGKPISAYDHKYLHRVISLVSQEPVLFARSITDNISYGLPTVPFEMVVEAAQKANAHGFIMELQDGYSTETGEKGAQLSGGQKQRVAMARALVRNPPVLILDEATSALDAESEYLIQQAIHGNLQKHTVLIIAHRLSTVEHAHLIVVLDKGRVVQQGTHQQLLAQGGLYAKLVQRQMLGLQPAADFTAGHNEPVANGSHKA

T3: human coreTAPL wildtype (transporter associated with antigen processing-like, ABCB9), C-terminal mVenus-His10 fusion (human) (UniProt Q9NP78)
T3 sequence: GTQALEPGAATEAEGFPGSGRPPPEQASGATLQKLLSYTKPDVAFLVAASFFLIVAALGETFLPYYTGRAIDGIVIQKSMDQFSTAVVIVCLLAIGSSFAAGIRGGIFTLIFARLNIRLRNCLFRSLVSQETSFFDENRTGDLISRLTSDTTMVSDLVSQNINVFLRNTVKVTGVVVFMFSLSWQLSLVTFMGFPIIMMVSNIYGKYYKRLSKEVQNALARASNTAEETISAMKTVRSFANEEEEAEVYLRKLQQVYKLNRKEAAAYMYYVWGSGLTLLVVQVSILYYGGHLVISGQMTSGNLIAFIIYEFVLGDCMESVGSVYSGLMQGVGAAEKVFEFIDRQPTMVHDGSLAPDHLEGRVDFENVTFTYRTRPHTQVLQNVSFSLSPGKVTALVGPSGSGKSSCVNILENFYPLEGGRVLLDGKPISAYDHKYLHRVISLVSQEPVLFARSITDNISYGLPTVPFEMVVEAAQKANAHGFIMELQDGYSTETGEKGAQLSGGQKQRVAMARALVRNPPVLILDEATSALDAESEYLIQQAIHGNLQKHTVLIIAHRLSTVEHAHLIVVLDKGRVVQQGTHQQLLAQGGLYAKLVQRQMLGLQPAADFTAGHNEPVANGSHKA


Legend:
[1] = target: T1, human coreTAPL D292A, C-terminal mVenus-His10 fusion (human)
[2] = target: T2, human coreTAPL R288A, C-terminal mVenus-His10 fusion (human)
[3] = target: T3, human coreTAPL wildtype (transporter associated with antigen processing-like, ABCB9), C-terminal mVenus-His10 fusion (human)
[4] = target: T2, human coreTAPL R288A, C-terminal mVenus-His10 fusion (human); remark: listed apart in the source
[5] = target: the molecule itself; assay: SEC; analytical, Superose 6 Increase 3.2/300, 20 mM Hepes, 140 mM NaCl, 100 mM imidazole, 15% glycerol, 0.1% GDN, pH 7.5, 4 °C; absorbance at 280 and 515 nm

Binder	binding result [5]	further results
RRYQNSTC(Fluorescein(5-NHCOCH2))L [peptide NST^FL (RRYQNSTC^FLL)]	–	K (m,peptide) of peptide transport into proteoliposomes (0 to 30 μM NST^FL, 10 min, 37 °C) [1]: 2.5 µM; K (m,peptide) of peptide transport into proteoliposomes (0 to 30 μM NST^FL, 10 min, 37 °C) [2]: 2.2 µM; K (m,peptide) of peptide transport into proteoliposomes (0 to 30 μM NST^FL, 10 min, 37 °C) [3]: 4.1 µM
RRYQKSTEL [peptide R9L (…)]	–	IC50 of the decrease of ATP hydrolysis in proteoliposomes by R9L (0–300 μM, 0.3 mM ATP, 15 min, 37 °C) [4]: 9.5 µM
human coreTAPL D278A, C-terminal mVenus-His10 fusion (complex, UniProt Q9NP78 143-766, looked up, human TAPL (ABCB9), coreTAPL, amino acids 143-766; Mutant of the mVenus fusion construct; TEV site between coreTAPL and mVenus; also called D278A^mV; source: Sf21 insect cells (baculovirus), purified by Ni-NTA after solubilisation in GDN or DDM; reconstituted into liposomes for transport and hydrolysis assays; not shown: mVenus, C-terminal, kept) GTQALEPGAATEAEGFPGSGRPPPEQASGATLQKLLSYTKPDVAFLVAASFFLIVAALGETFLPYYTGRAIDGIVIQKSMDQFSTAVVIVCLLAIGSSFAAGIRGGIFTLIFARLNIRLRNCLFRSLVSQETSFFAENRTGDLISRLTSDTTMVSDLVSQNINVFLRNTVKVTGVVVFMFSLSWQLSLVTFMGFPIIMMVSNIYGKYYKRLSKEVQNALARASNTAEETISAMKTVRSFANEEEEAEVYLRKLQQVYKLNRKEAAAYMYYVWGSGLTLLVVQVSILYYGGHLVISGQMTSGNLIAFIIYEFVLGDCMESVGSVYSGLMQGVGAAEKVFEFIDRQPTMVHDGSLAPDHLEGRVDFENVTFTYRTRPHTQVLQNVSFSLSPGKVTALVGPSGSGKSSCVNILENFYPLEGGRVLLDGKPISAYDHKYLHRVISLVSQEPVLFARSITDNISYGLPTVPFEMVVEAAQKANAHGFIMELQDGYSTETGEKGAQLSGGQKQRVAMARALVRNPPVLILDEATSALDAESEYLIQQAIHGNLQKHTVLIIAHRLSTVEHAHLIVVLDKGRVVQQGTHQQLLAQGGLYAKLVQRQMLGLQPAADFTAGHNEPVANGSHKA	binds	–
human coreTAPL R288A, C-terminal mVenus-His10 fusion (complex, UniProt Q9NP78 143-766, looked up, human TAPL (ABCB9), coreTAPL, amino acids 143-766; Mutant of the mVenus fusion construct; TEV site between coreTAPL and mVenus; also called R288A^mV; source: Sf21 insect cells (baculovirus), purified by Ni-NTA after solubilisation in GDN or DDM; reconstituted into liposomes for transport and hydrolysis assays; not shown: mVenus, C-terminal, kept) GTQALEPGAATEAEGFPGSGRPPPEQASGATLQKLLSYTKPDVAFLVAASFFLIVAALGETFLPYYTGRAIDGIVIQKSMDQFSTAVVIVCLLAIGSSFAAGIRGGIFTLIFARLNIRLRNCLFRSLVSQETSFFDENRTGDLISALTSDTTMVSDLVSQNINVFLRNTVKVTGVVVFMFSLSWQLSLVTFMGFPIIMMVSNIYGKYYKRLSKEVQNALARASNTAEETISAMKTVRSFANEEEEAEVYLRKLQQVYKLNRKEAAAYMYYVWGSGLTLLVVQVSILYYGGHLVISGQMTSGNLIAFIIYEFVLGDCMESVGSVYSGLMQGVGAAEKVFEFIDRQPTMVHDGSLAPDHLEGRVDFENVTFTYRTRPHTQVLQNVSFSLSPGKVTALVGPSGSGKSSCVNILENFYPLEGGRVLLDGKPISAYDHKYLHRVISLVSQEPVLFARSITDNISYGLPTVPFEMVVEAAQKANAHGFIMELQDGYSTETGEKGAQLSGGQKQRVAMARALVRNPPVLILDEATSALDAESEYLIQQAIHGNLQKHTVLIIAHRLSTVEHAHLIVVLDKGRVVQQGTHQQLLAQGGLYAKLVQRQMLGLQPAADFTAGHNEPVANGSHKA	binds	–
human coreTAPL D292A, C-terminal mVenus-His10 fusion (complex, UniProt Q9NP78 143-766, looked up, human TAPL (ABCB9), coreTAPL, amino acids 143-766; Mutant of the mVenus fusion construct; TEV site between coreTAPL and mVenus; also called D292A^mV; source: Sf21 insect cells (baculovirus), purified by Ni-NTA after solubilisation in GDN or DDM; reconstituted into liposomes for transport and hydrolysis assays; not shown: mVenus, C-terminal, kept) GTQALEPGAATEAEGFPGSGRPPPEQASGATLQKLLSYTKPDVAFLVAASFFLIVAALGETFLPYYTGRAIDGIVIQKSMDQFSTAVVIVCLLAIGSSFAAGIRGGIFTLIFARLNIRLRNCLFRSLVSQETSFFDENRTGDLISRLTSATTMVSDLVSQNINVFLRNTVKVTGVVVFMFSLSWQLSLVTFMGFPIIMMVSNIYGKYYKRLSKEVQNALARASNTAEETISAMKTVRSFANEEEEAEVYLRKLQQVYKLNRKEAAAYMYYVWGSGLTLLVVQVSILYYGGHLVISGQMTSGNLIAFIIYEFVLGDCMESVGSVYSGLMQGVGAAEKVFEFIDRQPTMVHDGSLAPDHLEGRVDFENVTFTYRTRPHTQVLQNVSFSLSPGKVTALVGPSGSGKSSCVNILENFYPLEGGRVLLDGKPISAYDHKYLHRVISLVSQEPVLFARSITDNISYGLPTVPFEMVVEAAQKANAHGFIMELQDGYSTETGEKGAQLSGGQKQRVAMARALVRNPPVLILDEATSALDAESEYLIQQAIHGNLQKHTVLIIAHRLSTVEHAHLIVVLDKGRVVQQGTHQQLLAQGGLYAKLVQRQMLGLQPAADFTAGHNEPVANGSHKA	binds	–
human coreTAPL wildtype (transporter associated with antigen processing-like, ABCB9), C-terminal mVenus-His10 fusion (complex, UniProt Q9NP78 143-766, looked up, human TAPL (ABCB9), coreTAPL without the N-terminal TMD0, amino acids 143-766; A tobacco etch virus cleavage site lies between coreTAPL and mVenus; no cleavage is reported for the mVenus constructs, so the His10 behind mVenus was probably still there; also called wt; wt TAPL; source: Sf21 insect cells (baculovirus), purified by Ni-NTA after solubilisation in GDN or DDM; reconstituted into …) GTQALEPGAATEAEGFPGSGRPPPEQASGATLQKLLSYTKPDVAFLVAASFFLIVAALGETFLPYYTGRAIDGIVIQKSMDQFSTAVVIVCLLAIGSSFAAGIRGGIFTLIFARLNIRLRNCLFRSLVSQETSFFDENRTGDLISRLTSDTTMVSDLVSQNINVFLRNTVKVTGVVVFMFSLSWQLSLVTFMGFPIIMMVSNIYGKYYKRLSKEVQNALARASNTAEETISAMKTVRSFANEEEEAEVYLRKLQQVYKLNRKEAAAYMYYVWGSGLTLLVVQVSILYYGGHLVISGQMTSGNLIAFIIYEFVLGDCMESVGSVYSGLMQGVGAAEKVFEFIDRQPTMVHDGSLAPDHLEGRVDFENVTFTYRTRPHTQVLQNVSFSLSPGKVTALVGPSGSGKSSCVNILENFYPLEGGRVLLDGKPISAYDHKYLHRVISLVSQEPVLFARSITDNISYGLPTVPFEMVVEAAQKANAHGFIMELQDGYSTETGEKGAQLSGGQKQRVAMARALVRNPPVLILDEATSALDAESEYLIQQAIHGNLQKHTVLIIAHRLSTVEHAHLIVVLDKGRVVQQGTHQQLLAQGGLYAKLVQRQMLGLQPAADFTAGHNEPVANGSHKA	binds	–
